B1: NY-ESO-1-VHH-9 (VHH)
VHH: QVQLQESGGGLVQAGGSLRLSCAASGYISYLNTMGWYRQAPGKEREFVATIGQGSSTYYADSVKGRFTISRDNAKNTVYLQMNSLKPEDTAVYYCADQLGYWGQGTQVTVSS
notes: Synthetic nanobody from a yeast display library
B2: NY-ESO-1-VHH-5 (VHH)
VHH: QVQLQESGGGLVQAGGSLRLSCAASGNISAVYTMGWYRQAPGKEREFVAAIDYGGSTYYADSVKGRFTISRDNAKNTVYLQMNSLKPEDTAVYYCASYYHGYWGQGTQVTVSS
notes: as for B1
B3: NY-ESO-1-VHH-1 (VHH)
VHH: QVQLQESGGGLVQAGGSLRLSCAASGTIFHQIDMGWYRQAPGKERELVAAIGTGSSTYYADSVKGRFTISRDNAKNTVYLQMNSLKPEDTAVYYCAAWHYYWGQGTQVTVSS
notes: as for B1
B4: NY-ESO-1-VHH-4 (VHH)
VHH: QVQLQESGGGLVQAGGSLRLSCAASGNIFYPQYMGWYRQAPGKEREFVAAISDGASTYYADSVKGRFTISRDNAKNTVYLQMNSLKPEDTAVYYCADLWYWGQGTQVTVSS
notes: as for B1

Broadly, the Kd is the concentration at which binding is half-saturated. Read a high Kd as lower affinity.

This test addresses T1, …-HLA A0201 complex (human, biotinylated with BirA (site not stated)).
T1 construct: Held on streptavidin in the ELISA and in SPR; also called NY-ESO-1 antigen; positive antigen NY-ESO-1
Briefly: SPR (BIAcore), biotinylated pMHC on streptavidin-coupled CM5 chip, nanobody as analyte. In general terms: Surface plasmon resonance follows binding to a sensor surface in real time, without labels.
In the case of B1, the Kd stood at 1170 nM.
The result for B2 reads 68.1 nM; that for B3, 96.6 nM; that for B4, 102 nM.
